Data from PMC4809669 (Biochemistry, 2016).

Target: the molecule itself
Test: SEC

B1: hASRGL1-C202A (enzyme, human, UniProt Q7L266 1-308, looked up)
chain: MNPIVVVHGGGAGPISKDRKERVHQGMVRAATVGYGILREGGSAVDAVEGAVVALEDDPEFNAGCGSVLNTNGEVEMDASIMDGKDLSAGAVSAVQCIANPIKLARLVMEKTPHCFLTDQGAAQFAAAMGVPEIPGEKLVTERNKKRLEKEKHEKGAQKTDCQKNLGTVGAVALDCKGNVAYATSTGGIVNKMVGRVGDSPALGAGGYADNDIGAVSTTGHGESILKVNLARLTLFHIEQGKTVEEAADLSLGYMKSRVKGLGGLIVVSKTGDWVAKWTSTSMPWAAAKDGKLHFGIDPDDTTITDLP
  stoichiometry N: 2

B2: hASRGL1-C202S (enzyme, human, UniProt Q7L266 1-308, looked up)
chain: MNPIVVVHGGGAGPISKDRKERVHQGMVRAATVGYGILREGGSAVDAVEGAVVALEDDPEFNAGCGSVLNTNGEVEMDASIMDGKDLSAGAVSAVQCIANPIKLARLVMEKTPHCFLTDQGAAQFAAAMGVPEIPGEKLVTERNKKRLEKEKHEKGAQKTDCQKNLGTVGAVALDCKGNVAYATSTGGIVNKMVGRVGDSPSLGAGGYADNDIGAVSTTGHGESILKVNLARLTLFHIEQGKTVEEAADLSLGYMKSRVKGLGGLIVVSKTGDWVAKWTSTSMPWAAAKDGKLHFGIDPDDTTITDLP
  stoichiometry N: 2
